{
  "source": "the DeepSol protein solubility set",
  "data": [
    {"assay": "soluble on expression in E. coli; label from the status in PepcDB or PDB records", "values": [
      {"sequence": "SGGRHIQAIRCWTIWKYMKDYFPISLVKTAELDPSRNYIAGFHPHGVLAVGAFANLCTESTGFSSIFPGIRPHLMMLTLWFRAPFFRDYIMSAGLVTSEKESAAHILNRKGGGNLLGIIVGGAQEALDARPGSFTLLLRNRKGFVRLALTHGAPLVPIFSFGENDLFDQIPNSSGSWLRYIQNRLQKIMGISLPLFHGRGVFQYSFGLIPYRRPITTVVGKPIEVQKTLHPSEEEVNQLHQRYIKELCNLFEAHKLKFNIPADQHLEFC", "soluble on expression in E. coli": "soluble"},
      {"sequence": "MTDNITDEAIIDKAQELHDKAYDKAVYERDEANGVHANQNNPEVLIFNDGPTDDEIREKLSWVVDRFRETLKPFPRDFDPLIDKIKAIEAAFGQEEDSFGDPDLGMIETSANYMAQWEGALSTNFNEKFLGPMPIIAANHGKLASYLRDHAEKMKSIYESGRQDALNIAEKGVEAIDAINDSNGKDLMIALAVLIAAGTLAGPALGVASAPLAVQLANAAVIAGSVLGGPFVEKGEEVPLGGDTVEEVMNNVRDALDASAKRIFEEEGYLLDALKKSEEEVFPQTSGNTDDHTALLPQQPKVFTATGEELTAGLVQFGSEDGTDGGGGDRGSYVGDDPPDNFEGSVFVPPEKKTATG", "soluble on expression in E. coli": "not soluble"},
      {"sequence": "MNLYSLLLSLITGCFLLAQGGTSFSSPVETEKSAVTAQSILEKADEIRFPQDSFQVNVAIRTAAPDHAEDLYRYQVLSKGNENSIVMITEPASERGQAILMKGRDLWVFMPSVSQPIRLSLSQRLTGQVANGDIARANFTGDYHPQLLRNESIDDEDYYVLELTGIDRSVTYQKVLLWVNQSNFRPYKAEFYSVSGRLLKTSRYENFDNILGEMRPTRIIMEDALKSGEVSVLDYSDMKLRDLPDKIFTKDYLKRLE", "soluble on expression in E. coli": "not soluble"},
      {"sequence": "TEDFRWKTTFNYSQNRNKVVELAPNYTSFVYGDPGFSMAYMMQIKEGGSLGDIYGNTFARDEQGKIKVSDEGKPISESGNKTYLGNCNPDFLLSWANTFTYKGFSLYFLIDMRKGGDVMSLTQATLDGRGVTKATAEARDRGYVEVDGTRFENVEGFYSVVGDRNGISERYMYSATNIRLRELSLSYSFPSTLLAKTKVFTGIDVSLVGRNLFFFYKDAPFDPDAILSVGNTNQGVDVFGMPTTRNIGFNVKFTF", "soluble on expression in E. coli": "not soluble"},
      {"sequence": "MGSDKIHHHHHHMLSLSKPLQEFYRLDKCLSKHGTRFEFVNDKEIICSPDESNTHTFVILEGVVSLVRGDKVLIGIVQAPFIFGLADGVAKKEAQYKLIAESGCIGYRLSSSQTLAIIEQNQLWREAFCWIVWKSQVLELRDKQLIGNNSYDQIRATLMTMIEWDEELRSRIGVMNYIHQRTRVSRSVVAEVLAALRKGNYIEMNKGKLISINRLPSEY", "soluble on expression in E. coli": "not soluble"},
      {"sequence": "MFFESCKSILYSDTLVPDIFITEYMPLLSSDSVKVYLYSLFLSKHNKKASTEEFAKSMGLEISTVKECLAQLESMGVLTWKEDGLVLHDLKEKEINKMYRLKTTSTPEEVASNCEKNKKRNEIIYTINNTFFQGVMSPSWYTDIDAWFDRYKFDEDVMLALFQYCFDHKGLIKPYIEKVAESWKNRNIRNAFDLDNYSIQYKKFKDVRSAIVKKLKLGRNLTEYEEAYVEKWVMDYNYDFDIIELALKKTTSKTNPNFDYLDSIITDWHNNNFKTKEEIMSYEAARKKKNSRTSSVSASVIVPQKGNFEQRKYEDEYLNSLYENA", "soluble on expression in E. coli": "not soluble"},
      {"sequence": "MDLKFKSQETGRSIGFASHLRRHGATLANHLNYTRNEFISTLADCHQNLGIEGRASSPEKQFDEDGDEIEATATKIEWQPLKCPKCHRNSENTRKLLEHLVEDHGRPQDKAWFEQFDTIGTDLKKVFDKAIRIQAENSVVKKKFQNSNDLLVCPTDSPLAPFLLMRHLQVNFQEVSQTLTEGIVLKLQIASTSYTIIFSFHKVDKARRRIKREMARKSLERRLRVLELRCARTWVPDDDVVFKKKRTSEENKALIQALKLPATSSHDDIVLKINEMKTQHDEMVK", "soluble on expression in E. coli": "not soluble"},
      {"sequence": "MAHHHHHHMLQSPKGINILITGTPGTGKTSLAELLAQELGDFKHVEVGKIVKENHFYSEYDNALDTHIVEEDDEDRLLDFMEPMMVNEGNHVVDYHSSELFPRRWFHLVIVLRASTEVLFERLTARRYSEQKRDENMEAEIQGLCEEEARGAYDDSIVIVRENNTLEEMAATVDLIRLRVESLRGNAA", "soluble on expression in E. coli": "not soluble"},
      {"sequence": "MLRIAYRLLWRALLPFALLRLWWRGRKEPGYRQHVGERLGFYRPRANPDHPLLWVHAVSVGETRAAQPLIDALLARFPQHDVLLTHMTPTGRRTGAEFAAQRNGRVIQAYLPYDLAGAVDRFLRHFQPRLGLLMETEIWPVLIERAHHAGVPMVLVNGRLSERSHRRTARLGQAARETYAQLAAVLAQTPDDADRYRSLGVPRVRVTGNLKFDITPHVDQIMMGRALRDALGGRAVWVAASTREGEEPLLLDAWHAHRAQHAGRRHPLLILVPRHPQRFDEVAQLAGLKGLRVARRSALSLSAAEAPDAAGVLDADILLGDSMGEMALYYAAAQAAFIGGSLLPMGGQNLIEACAVGTPVVIGPHTFNFAQATRDAVAAGACVQVEDAACAVRVIDQWLSDADAREAASRAALAFAATHGGATARTVEAVASLVLPSLLEHHHHHH", "soluble on expression in E. coli": "not soluble"},
      {"sequence": "MGLRRGWTPPWPLDLGIVLGPLRRGPGDPTFRTTPDGAVWRASRTPAGPGTLRVALRGGAVEAEAWGPGAEWLLHQLPEMLGSADDPDAFEPRHRLVAVTRHRRPGLRLTRTGLVLESLIPSVLEQKVTADEAYRAWRLLVRKFGEPAPGPVEGRMHVMPEPRTWALIPSWEWHRAGVDNKRASTILRAVRVAARLEQAMGMEPAQAQARLEVVSGIGPWTSAETVQRSHGAADSVTVGDLHLPRIVGYALAGDRDADDAAMLELLAPYAGQRHRAARLILLSGRTPPAAALEHHHHHH", "soluble on expression in E. coli": "not soluble"},
      {"sequence": "GLDNELSLVDGQDRTLTVQQWDTFLNGVFPLDRNRLTREWFHSGRAKYIVAGPGADEFEGTLELGYQIGFPWSLGVGINFSYTTPNILIDDGDITRPPFGLNSVITPNLFPGVSISADLGNGPGIQEVATFSVDVSGAEGGVAVSNAHGTVTGAAGGVLLRPFARLIASTGDSVTTYGEPWNMN", "soluble on expression in E. coli": "soluble"},
      {"sequence": "MELRVAGFLDNSMVNGEGLRSVLFLSGCRRRCPGCQNTDMQDFKYGESVSAEEIFNRIKSNVPIIKGVTFSGGDPLEQAEGLINISKEIKKLGLNIWCYTGYTYEEILKEKDSNKLELLKYIDVLVDGEFKAELTENAPKYAGSSNQRIIRLKLEHHHHHH", "soluble on expression in E. coli": "not soluble"},
      {"sequence": "MAGVRQHGWRAIPAVCSEYGADTLPDRYRSDGRCLLFRQQAGISALKQELEVKTPYRAMNHPVIGVVTKADLASMEQISLVKCWLREAGAHNVLVTSAVNNNGVTELFALLHTEEGCR", "soluble on expression in E. coli": "not soluble"},
      {"sequence": "MRIVPFGAAREVTGSAHLLLAGGRRVLLDCGMFQGKEEARNHAPFGFDPKEVDAVLLTHAHLDHVGRLPKLFREGYRGPVYATRATVLLMEIVLEDALKVMDEPFFGPEDVEEALGHLRPLEYGEWLRLGALSLAFGQAGHLPGSAFVVAQGEGRTLVYSGDLGNREKDVLPDPSLPPLADLVLAEGTYGDRPHRPYRETVREFLEILEKTLSQGGKVLIPTFAVERAQEILYVLYTHGHRLPRAPIYLDSPMAGRVLSLYPRLVRYFSEEVQAHFLQGKNPFRPAGLEVVEHTEASKALNRAPGPMVVLAGSGMLAGGRILHHLKHGLSDPRNALVFVGYQPQGGLGAEIIARPPAVRILGEEVPLRASVHTLGGFSGHAGQDELLDWLQGEPRVVLVHGEEEKLLALGKLLALRGQEVSLARFGEGVPV", "soluble on expression in E. coli": "soluble"},
      {"sequence": "MKNVGDVGDLCTGCGTCAAMCPLESVVMRIDHDRGVYEPLVDGECDGCGVCLRVCPGVGVDFTDLNMRVFGREPDDMLMGNYEECYIAHSRDDELRYGASSGGMISQILIYLLEEGLIDGALVTRMNPERPLEPEPFIARTPSEIIESRGSKYCPVPANVALKEILEVPGRYAVVGLPCHIHGVRKAEVISRKLRERIVYHLGIVCNHAPSFRATEFLLERLGVDPGDVKSIRYRGEGWPGSLRVETESGDLLLLPEYWGSGFGQLFMPERCRLCADHMAELSDISFADPWLKELKDEKKGRTLVIIRKWPEKFAGILKGGICEMDKIKPEKALLSQIYNIYMKKKLCRRSMYNGSFPEIDFIDRIILSFEPSRLKIPWTIKRRYIFFYSMIVALKARMDFLGDSKLEHHHHHH", "soluble on expression in E. coli": "soluble"},
      {"sequence": "MRQATRKGLMTMAAATGVIAAAGGAAHADSGAHGTSSGSPGVLSGNTVQAPVHVPVNVCGNTVDVVGVLNPAMGNACANQGGGASGGHGGHGGHGGYGDSGGEGGSHGGSHAGGHATDSPGVGSGNHVEVPIDVPVNVCGNSIDVVGALNPTTGNDCGNGGGGDHSTPPGDHETPPGEPHNPGNPGNPDTPDKPSGPDDETPGDSTDGNRPGAQTVDQPRGDAALAETGSDLPLGLALPVGAGALLAGTVLYRKARASVLEHHHHHH", "soluble on expression in E. coli": "not soluble"},
      {"sequence": "MGSDKIHHHHHHMEFIPPKRLLELIRQYSTTFENWHSVMLSIYLHKERIKCKLRNGQLLYLKPNEIVLLAGLKIVELNEDSVRFQFNGREICLKGWKLSYPGDSFSDYWRIDVRGKRVLDIGAGIGDSPIYFSIAGAKEVVAVEVDSKKVELMRENLKANSINNVIVVDKGVGIKDDENYISWPKLISNYGPFDVAKIDCDGCEKIIVPYIKEIPSLLIEWDYNYKDIVSNLTKNGYKVKVEHTLKNLGFIYAKKR", "soluble on expression in E. coli": "not soluble"},
      {"sequence": "ETVHETPLLIFPPWINKFYILDLKPQNSLLKWLVDQGFTVFVVSWVNPDKSYAGIGMDDYIREGYMRAMAEVRSITRQKQINAVGYCIAGTTLTLTLAHLQKAGDPSVRSATFFTTLTDFSDPGEVGVFLNDDFVDGIERQVAVDGILDKTFMSRTFSYLRSNDLIYQPAIKSYMMGEAPPAFDLLYWNGDGTNLPAQMAVEYLRGLCQQDRLAGGTFPVLGSPVGLKDVTLPVCAIACETDHIAPWKSSFNGFRQFGSTDKTFILSQSGHV", "soluble on expression in E. coli": "not soluble"},
      {"sequence": "PNAIVNRSIPEGVDVFEISGPLFFGAASKFKDAMHVVEKAPSIRILRMRKVMSIDATGLNMLKELFNDCRKSGTTLILSGVHTQPLFAMQQYGLADEIGEENIFGNIDDALDRARSLLGLPVQGRPAGF", "soluble on expression in E. coli": "not soluble"},
      {"sequence": "GHLYLVPTPIGNLDDMTFRAVKTLTAVDLIAAEDTRNTQKLLNHFEITTKQISFHEHNTQERIPQLIAKLKQGMQIAQVSDAGMPSISDPGHELVNACIDAHIPVVPLPGA", "soluble on expression in E. coli": "not soluble"},
      {"sequence": "MSQTRTHEQVLAKEPWYHGLLPREDMKQLLTQRGDFLVRFTDPKVGEPRKFVLSVYVGVIEDIRHYVIREHNNKFAVDKKWFSSIADLLNYYHRSKEPVAGGPETVIIRPIGREPWEKQHSDVTLIKKLGEGAFGEVQLGEIRIGNTVKKAAIKLAKLESLTKEQIKEIMHEARLMRKFKHPNVVTFYGVAAGQEPLMVIMELADNGALDSYLKKNIGSLPISKKHTMVLQAGLGLEYLHSLQIIHRDIASRNCLYGNGQVKISDFGLSREGYSYRMNPHKKVPIRWLAPEVPRTGFYTPKTDVFAYGVMCWEVYHDGIEPYPGMKVAEVLPRVQNGYRMPFEANVPPAIVRFITYRICAGAEEERVTMSEAVRELLTLEGFDQAPGSNSYFELPDHIPMENIEQPKKIQVSNILPYMSKPVAPPFEPERQEKTQEMRKSMSNSAEEGVKKNRRPVRTRIRNGNSPSPGFKSQSRSAAENQNKSNLKAVQKKKNNKQSSSISGDAPSTFSVLGVFGKKKNTADRSDLKKLEEF", "soluble on expression in E. coli": "not soluble"},
      {"sequence": "MGSDKIHHHHHHMSNVDRAEIAKFEALAHRWWDRESEFKPLHEINPLRVNWIDERVSLAGKKVLDVGCGGGILSEAMALRGATVTGIDMGEAPLAVAQLHQLESGVQVEYRQITAEALAEEMPEQFDVVTCLEMLEHVPDPSSVIRACYRMVKPGGQVFFSTINRNPKAYLLAIVGAEYILKMLPRGTHDFKKFIRPSELGAWSRDAGLQVKDIIGLTYNPLTKHYKLNSDVDVNYMIQTLREE", "soluble on expression in E. coli": "not soluble"}
    ]}
  ]
}
